B1: Escherichia coli RecO protein (natural protein, E. coli, UniProt P0A7H3 1-242, looked up)
chain: MEGWQRAFVLHSRPWSETSLMLDVFTEESGRVRLVAKGARSKRSTLKGALQPFTPLLLRFGGRGEVKTLRSAEAVSLALPLSGITLYSGLYINELLSRVLEYETRFSELFFDYLHCIQSLAGVTGTPEPALRRFELALLGHLGYGVNFTHCAGSGEPVDDTMTYRYREEKGFIASVVIDNKTFTGRQLKALNAREFPDADTLRAAKRFTRMALKPYLGGKPLKSRELFRQFMPKRTVKTHYE
notes: RecO, recombination mediator protein of the RecF pathway, E. coli; also called E. coli RecO; source: E. coli BL21(DE3) pLysS, plasmid pMCSG7, purified (Ni-NTA, HiTrap Heparin HP) after His-tag cleavage with TEV protease
B5: Escherichia coli RecR protein (natural protein, E. coli, UniProt P0A7H6 1-201, looked up)
chain: MQTSPLLTQLMEALRCLPGVGPKSAQRMAFTLLQRDRSGGMRLAQALTRAMSEIGHCADCRTFTEQEVCNICSNPRRQENGQICVVESPADIYAIEQTGQFSGRYFVLMGHLSPLDGIGPDDIGLDRLEQRLAEEKITEVILATNPTVEGEATANYIAELCAQYDVEASRIAHGVPVGGELEMVDGTTLSHSLAGRHKIRF
notes: RecR, recombination mediator protein, E. coli; in the complex with RecO found here it is a tetramer (RecR4O); also called E. coli RecR; source: E. coli BL21 Rosetta 2(DE3)pLysS, plasmid pMCSG7, purified (Ni-NTA), His-tag cleaved with TEV protease

Experiments:
[1] = biological target: SSB-Ct peptide C-terminal tail (Escherichia coli) (UniProt P0AGE0); test: given as Ka; conditions: cited from earlier work
Sequence of SSB-Ct peptide C-terminal tail (Escherichia coli) (P0AGE0 whole entry, looked up): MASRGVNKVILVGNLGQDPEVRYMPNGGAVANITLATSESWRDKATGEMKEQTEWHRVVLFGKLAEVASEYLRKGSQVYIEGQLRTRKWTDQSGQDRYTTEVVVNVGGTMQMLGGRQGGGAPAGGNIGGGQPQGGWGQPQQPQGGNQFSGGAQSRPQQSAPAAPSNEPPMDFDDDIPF

[2] = biological target: B5; test: AUC; sedimentation equilibrium, 18 000, 23 000 and 28 000 rpm, 25°C, buffer BTP; RecO 2.24 uM, RecR 8.96 uM, SSB-Ct 13.4 uM, Cy3-(dT)15 0.56 uM; absorbance of the Cy3-DNA at 546 nm; one-species fit; conditions: both partners purified
[3] = biological target: T1, RecO (Escherichia coli, UniProt P0A7H3 1-242); test: light scattering; no SSB-Ct; onset at RecO/DNA 6; Buffer BTP: 20 mM Bis-Tris propane pH 8.0, 50 mM NaCl, 25% (v/v) glycerol, 1 mM TCEP, 25 C; conditions: protein: recombinant; tags: His-tag cleaved with TEV (pMCSG7)
T1 sequence: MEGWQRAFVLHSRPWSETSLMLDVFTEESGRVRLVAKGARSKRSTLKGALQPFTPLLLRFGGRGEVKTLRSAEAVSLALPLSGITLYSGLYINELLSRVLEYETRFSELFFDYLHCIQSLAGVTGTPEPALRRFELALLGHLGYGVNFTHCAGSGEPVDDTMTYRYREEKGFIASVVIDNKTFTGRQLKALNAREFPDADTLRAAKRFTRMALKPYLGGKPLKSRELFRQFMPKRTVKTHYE

[4] = biological target: T2, RecO;RecR (Escherichia coli;Escherichia coli, UniProt P0A7H3;P0A7H6 1-242;1-201, |); test: AUC sedimentation velocity; no SSB-Ct; 2.9 S; Buffer BTP: 20 mM Bis-Tris propane pH 8.0, 50 mM NaCl, 25% (v/v) glycerol, 1 mM TCEP, 25 C; conditions: protein: recombinant;recombinant; tags: His-tag cleaved with TEV (pMCSG7);His-tag cleaved with TEV (pMCSG7); label: 3'-Cy3
T2 sequence 1: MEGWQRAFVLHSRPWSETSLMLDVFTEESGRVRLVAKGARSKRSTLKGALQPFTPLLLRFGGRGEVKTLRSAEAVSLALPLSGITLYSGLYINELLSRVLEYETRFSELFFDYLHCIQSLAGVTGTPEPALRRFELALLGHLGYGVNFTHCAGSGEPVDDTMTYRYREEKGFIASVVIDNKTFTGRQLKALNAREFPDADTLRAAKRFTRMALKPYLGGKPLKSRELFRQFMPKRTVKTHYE
T2 sequence 2: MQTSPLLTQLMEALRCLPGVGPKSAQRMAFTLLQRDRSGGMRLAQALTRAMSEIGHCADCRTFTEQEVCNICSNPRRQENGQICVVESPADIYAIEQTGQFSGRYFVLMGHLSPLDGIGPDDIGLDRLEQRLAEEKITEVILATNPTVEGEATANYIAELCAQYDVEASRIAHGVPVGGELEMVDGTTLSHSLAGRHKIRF

[5] = biological target: T3, RecO;RecR;SSB-Ct peptide (P15) (Escherichia coli;Escherichia …, UniProt P0A7H3;P0A7H6;P0AGE0 1-242;1-201;, ||); test: AUC sedimentation velocity and equilibrium; 13.4 uM SSB-Ct; 2.6 S; 131.1 kDa, RecR4O with one DNA; Buffer BTP: 20 mM Bis-Tris propane pH 8.0, 50 mM NaCl, 25% (v/v) glycerol, 1 mM TCEP, 25 C; conditions: tags: His-tag cleaved with TEV (pMCSG7);His-tag cleaved with TEV (pMCSG7);; label: 3'-Cy3
[6] = biological target: T4, RecO;SSB-Ct peptide (P15) (Escherichia coli;Escherichia coli, UniProt P0A7H3;P0AGE0 1-242;, |); test: AUC sedimentation velocity and equilibrium; 13.4 uM SSB-Ct; 0.7 S; 31.8 kDa, 1 RecO per DNA; Buffer BTP: 20 mM Bis-Tris propane pH 8.0, 50 mM NaCl, 25% (v/v) glycerol, 1 mM TCEP, 25 C; conditions: tags: His-tag cleaved with TEV (pMCSG7);; copies: 1;1; label: 3'-Cy3
[7] = biological target: T2, RecO;RecR; test: AUC sedimentation velocity; no SSB-Ct; 5.7 S; Buffer BTP: 20 mM Bis-Tris propane pH 8.0, 50 mM NaCl, 25% (v/v) glycerol, 1 mM TCEP, 25 C; conditions: protein: recombinant;recombinant; tags: His-tag cleaved with TEV (pMCSG7);His-tag cleaved with TEV (pMCSG7); label: 3'-Cy3
[8] = biological target: T4, RecO;SSB-Ct peptide (P15); test: AUC sedimentation velocity; 13.4 uM SSB-Ct; 2.1 S; Buffer BTP: 20 mM Bis-Tris propane pH 8.0, 50 mM NaCl, 25% (v/v) glycerol, 1 mM TCEP, 25 C; conditions: tags: His-tag cleaved with TEV (pMCSG7);; copies: 1;1; label: 3'-Cy3
[9] = biological target: T3, RecO;RecR;SSB-Ct peptide (P15); test: AUC sedimentation velocity; 13.4 uM SSB-Ct; 4.8 S; Buffer BTP: 20 mM Bis-Tris propane pH 8.0, 50 mM NaCl, 25% (v/v) glycerol, 1 mM TCEP, 25 C; conditions: tags: His-tag cleaved with TEV (pMCSG7);His-tag cleaved with TEV (pMCSG7);; label: 3'-Cy3
[10] = biological target: B1; test: AUC; sedimentation equilibrium, 18 000, 23 000 and 28 000 rpm, 25°C, buffer BTP (pH 8.0, 50 mM NaCl, 25% glycerol, 1 mM TCEP); RecO 2.24 uM, SSB-Ct 13.4 uM, Cy3-(dT)15 or Cy3-(dT)35 0.56 uM; absorbance of the Cy3-DNA at 546 nm; one-species fit; conditions: both partners purified
[11] = biological target: T2, RecO;RecR; test: AUC sedimentation velocity; no SSB-Ct; 6.3 S; Buffer BTP: 20 mM Bis-Tris propane pH 8.0, 50 mM NaCl, 25% (v/v) glycerol, 1 mM TCEP, 25 C; conditions: protein: recombinant;recombinant; tags: His-tag cleaved with TEV (pMCSG7);His-tag cleaved with TEV (pMCSG7); label: 3'-Cy3
[12] = biological target: T4, RecO;SSB-Ct peptide (P15); test: AUC sedimentation velocity; 13.4 uM SSB-Ct; 1.9 S; Buffer BTP: 20 mM Bis-Tris propane pH 8.0, 50 mM NaCl, 25% (v/v) glycerol, 1 mM TCEP, 25 C; conditions: tags: His-tag cleaved with TEV (pMCSG7);; copies: 1;1; label: 3'-Cy3
[13] = biological target: T3, RecO;RecR;SSB-Ct peptide (P15); test: AUC sedimentation velocity; 13.4 uM SSB-Ct; 4.7 S; Buffer BTP: 20 mM Bis-Tris propane pH 8.0, 50 mM NaCl, 25% (v/v) glycerol, 1 mM TCEP, 25 C; conditions: tags: His-tag cleaved with TEV (pMCSG7);His-tag cleaved with TEV (pMCSG7);; label: 3'-Cy3
[14] = biological target: T4, RecO;SSB-Ct peptide (P15); test: AUC sedimentation velocity and equilibrium; 13.4 uM SSB-Ct; 1.2 S; 70.1 kDa, 2 RecO per DNA; Buffer BTP: 20 mM Bis-Tris propane pH 8.0, 50 mM NaCl, 25% (v/v) glycerol, 1 mM TCEP, 25 C; conditions: tags: His-tag cleaved with TEV (pMCSG7);; copies: 1;1; label: 3'-Cy3
[15] = biological target: T2, RecO;RecR; test: AUC sedimentation velocity; no SSB-Ct; 5.4 S; Buffer BTP: 20 mM Bis-Tris propane pH 8.0, 50 mM NaCl, 25% (v/v) glycerol, 1 mM TCEP, 25 C; conditions: protein: recombinant;recombinant; tags: His-tag cleaved with TEV (pMCSG7);His-tag cleaved with TEV (pMCSG7); label: 3'-Cy3
[16] = biological target: T3, RecO;RecR;SSB-Ct peptide (P15); test: AUC sedimentation velocity; 13.4 uM SSB-Ct; 3.8 S; Buffer BTP: 20 mM Bis-Tris propane pH 8.0, 50 mM NaCl, 25% (v/v) glycerol, 1 mM TCEP, 25 C; conditions: tags: His-tag cleaved with TEV (pMCSG7);His-tag cleaved with TEV (pMCSG7);; label: 3'-Cy3
[17] = biological target: B1; test: AUC; sedimentation velocity, 42,000 rpm, 25°C, buffer BTP; RecO 2.24 uM, RecR 8.96 uM, Cy3-(dT)L (L = 15, 35, 68, 140) 0.56 uM, in the absence and presence of SSB-Ct 13.4 uM; absorbance of the Cy3-DNA at 546 nm; c(s) distributions; conditions: both partners purified
[18] = biological target: the molecule itself; test: AUC; sedimentation equilibrium, 18 000, 23 000 and 28 000 rpm, 25°C, buffer BTP; RecO 2.24 uM, RecR 8.96 uM, SSB-Ct 13.4 uM, Cy3-(dT)15 0.56 uM; absorbance of the Cy3-DNA at 546 nm; one-species fit

Molecule: RecO (from UniProt P0A7H3)
- Kd [1]: 83.3 nM

Molecule: B1
- stoichiometry N [2]: 1 RecO per RecR tetramer

B2: (dT)70 (ssDNA)
DNA: TTTTTTTTTTTTTTTTTTTTTTTTTTTTTTTTTTTTTTTTTTTTTTTTTTTTTTTTTTTTTTTTTTTTTT
- binding result [3]: binds

Molecule: TTTTTTTTTTTTTTT (ssDNA) [Cy3-(dT)15]
- binding result [4]: binds
- binding result [5]: binds
- binding result [6]: binds

B3: Cy3-(dT)140 (ssDNA)
DNA: TTTTTTTTTTTTTTTTTTTTTTTTTTTTTTTTTTTTTTTTTTTTTTTTTTTTTTTTTTTTTTTTTTTTTTTTTTTTTTTTTTTTTTTTTTTTTTTTTTTTTTTTTTTTTTTTTTTTTTTTTTTTTTTTTTTTTTTTTTTT
- binding result [7]: binds
- binding result [8]: binds
- binding result [9]: binds

Molecule: PSNEPPMDFDDDIPF (source: bought: WatsonBio (Houston, TX)) [SSB-Ct peptide, composed of the 15 C-terminal amino acids of E. coli SSB]
- binding result [10]: binds

B4: Cy3-(dT)68 (ssDNA)
DNA: TTTTTTTTTTTTTTTTTTTTTTTTTTTTTTTTTTTTTTTTTTTTTTTTTTTTTTTTTTTTTTTTTTTT
- binding result [11]: binds
- binding result [12]: binds
- binding result [13]: binds

Molecule: TTTTTTTTTTTTTTTTTTTTTTTTTTTTTTTTTTT (ssDNA) [Cy3-(dT)35]
- binding result [14]: binds
- binding result [15]: binds
- binding result [16]: binds

Molecule: B5
- binding result [17]: binds
- stoichiometry N [18]: 4
